Assay results reported in article PMC4422259, “Arc is a flexible modular protein capable of reversible self-oligomerization” (Biochemical Journal, 2015).

How the values were obtained:
[1] = biological target: the molecule itself; test: dynamic light scattering; hArc 22 μM (1 mg/ml) in 10 mM potassium phosphate, pH 7.4, at 36°C
[2] = biological target: the molecule itself; test: dynamic light scattering; hArc 22 μM (1 mg/ml) in 10 mM potassium phosphate, pH 7.4, without salt, at 20°C and 90°C

B1: recombinant human Arc (activity-regulated cytoskeleton-associated protein), wild type, cleaved from the His-ZZ-hArc fusion protein (natural protein, UniProt Q7LC44 1-396, looked up)
chain: MELDHRTSGGLHAYPGPRGGQVAKPNVILQIGKCRAEMLEHVRRTHRHLLAEVSKQVERELKGLHRSVGKLESNLDGYVPTSDSQRWKKSIKACLCRCQETIANLERWVKREMHVWREVFYRLERWADRLESTGGKYPVGSESARHTVSVGVGGPESYCHEADGYDYTVSPYAITPPPAAGELPGQEPAEAQQYQPWVPGEDGQPSPGVDTQIFEDPREFLSHLEEYLRQVGGSEEYWLSQIQNHMNGPAKKWWEFKQGSVKNWVEFKKEFLQYSEGTLSREAIQRELDLPQKQGEPLDQFLWRKRDLYQTLYVDADEEEIIQYVVGTLQPKLKRFLRHPLPKTLEQLIQRGMEVQDDLEQAAEPAGPHLPVEDEAETLTPAPNSESVASDRTQPE
notes: human Arc (activity-regulated cytoskeleton-associated protein); called full-length hArc; Vector pETZZ_1a; also called WT hArc; Arc/Arg3.1; source: E. coli BL21-CodonPlus, auto-induction medium, purified (Ni-NTA, TEV cleavage, second Ni-NTA flow-through); not shown: His, N-terminal, cleaved; ZZ domain, N-terminal, cleaved
For B1, the “stoichiometry N” value [1] was > 12 subunits and the “stoichiometry N” value [2] was ≥ 40 subunits.
